Patent US20120220489A1

Experiments:
[1] = target: ERK1 (p42) active (phospho), human, Active Motif 31 152 (human) (UniProt P27361); experiment: RPA, normal assay
[2] = target: ERK1 (p44) active (GST tagged), human, Invitrogen PV 3311 (human) (UniProt P27361); experiment: RPA, normal assay
[3] = target: ERK1 (p44) inactive (GST tagged), human, Invitrogen PV 3312 (human) (UniProt P27361); experiment: RPA, normal assay
[4] = target: ERK1 (p44), human, Cell Signaling Technology 7416 (human) (UniProt P27361); experiment: RPA, normal assay
[5] = target: ERK2 (p42), human, Biosource PHO 0104 (human) (UniProt P28482); experiment: RPA, normal assay
[6] = target: Erk1-BSA 2.7x peptide-protein conjugate (human; bovine); experiment: RPA, normal assay
[7] = target: Histone H3 recombinant protein, calf, Roche 11 034 758 001 (calf) (UniProt P68432); experiment: RPA, normal assay
[8] = target: Histone H3 recombinant protein, human, Upstate 14-494 (human) (UniProt P68431); experiment: RPA, normal assay
[9] = target: Histone H3-BSA 2.7x peptide-protein conjugate (bovine); experiment: RPA, normal assay
[10] = target: pRb recombinant protein, human, Active Motif 31 128 (human) (UniProt P06400); experiment: RPA, normal assay
[11] = target: pRb-BSA 1x peptide-protein conjugate (bovine); experiment: RPA, normal assay
[12] = target: ERK1 (p42) active (phospho), human, Active Motif 31 152 (human) (UniProt P27361); experiment: RPA, competition: +free Erk1 peptide 1000 nM
[13] = target: ERK1 (p44) active (GST tagged), human, Invitrogen PV 3311 (human) (UniProt P27361); experiment: RPA, competition: +free Erk1 peptide 1000 nM
[14] = target: ERK1 (p44) inactive (GST tagged), human, Invitrogen PV 3312 (human) (UniProt P27361); experiment: RPA, competition: +free Erk1 peptide 1000 nM
[15] = target: ERK1 (p44), human, Cell Signaling Technology 7416 (human) (UniProt P27361); experiment: RPA, competition: +free Erk1 peptide 1000 nM
[16] = target: ERK2 (p42), human, Biosource PHO 0104 (human) (UniProt P28482); experiment: RPA, competition: +free Erk1 peptide 1000 nM
[17] = target: Erk1-BSA 2.7x peptide-protein conjugate (human; bovine); experiment: RPA, competition: +free Erk1 peptide 1000 nM
[18] = target: Histone H3 recombinant protein, calf, Roche 11 034 758 001 (calf) (UniProt P68432); experiment: RPA, competition: +free Erk1 peptide 1000 nM
[19] = target: Histone H3 recombinant protein, human, Upstate 14-494 (human) (UniProt P68431); experiment: RPA, competition: +free Erk1 peptide 1000 nM
[20] = target: Histone H3-BSA 2.7x peptide-protein conjugate (bovine); experiment: RPA, competition: +free Erk1 peptide 1000 nM
[21] = target: pErk1/2-BSA 2.7x peptide-protein conjugate (human; bovine); experiment: RPA, competition: +free Erk1 peptide 1000 nM
[22] = target: pRb recombinant protein, human, Active Motif 31 128 (human) (UniProt P06400); experiment: RPA, competition: +free Erk1 peptide 1000 nM
[23] = target: pRb-BSA 1x peptide-protein conjugate (bovine); experiment: RPA, competition: +free Erk1 peptide 1000 nM
[24] = target: ERK1 (p42) active (phospho), human, Active Motif 31 152 (human) (UniProt P27361); experiment: RPA, competition: +recombinant protein 100 nM (not named)
[25] = target: ERK1 (p44) active (GST tagged), human, Invitrogen PV 3311 (human) (UniProt P27361); experiment: as above
[26] = target: ERK1 (p44) inactive (GST tagged), human, Invitrogen PV 3312 (human) (UniProt P27361); experiment: as above
[27] = target: ERK1 (p44), human, Cell Signaling Technology 7416 (human) (UniProt P27361); experiment: as above
[28] = target: ERK2 (p42), human, Biosource PHO 0104 (human) (UniProt P28482); experiment: as above
[29] = target: Erk1-BSA 2.7x peptide-protein conjugate (human; bovine); experiment: as above
[30] = target: Histone H3 recombinant protein, calf, Roche 11 034 758 001 (calf) (UniProt P68432); experiment: as above
[31] = target: Histone H3 recombinant protein, human, Upstate 14-494 (human) (UniProt P68431); experiment: as above
[32] = target: Histone H3-BSA 2.7x peptide-protein conjugate (bovine); experiment: as above
[33] = target: pErk1/2-BSA 2.7x peptide-protein conjugate (human; bovine); experiment: as above
[34] = target: pRb recombinant protein, human, Active Motif 31 128 (human) (UniProt P06400); experiment: as above
[35] = target: pRb-BSA 1x peptide-protein conjugate (bovine); experiment: as above

Sequence of UniProt P28482 (P28482 2-360 limits assumed): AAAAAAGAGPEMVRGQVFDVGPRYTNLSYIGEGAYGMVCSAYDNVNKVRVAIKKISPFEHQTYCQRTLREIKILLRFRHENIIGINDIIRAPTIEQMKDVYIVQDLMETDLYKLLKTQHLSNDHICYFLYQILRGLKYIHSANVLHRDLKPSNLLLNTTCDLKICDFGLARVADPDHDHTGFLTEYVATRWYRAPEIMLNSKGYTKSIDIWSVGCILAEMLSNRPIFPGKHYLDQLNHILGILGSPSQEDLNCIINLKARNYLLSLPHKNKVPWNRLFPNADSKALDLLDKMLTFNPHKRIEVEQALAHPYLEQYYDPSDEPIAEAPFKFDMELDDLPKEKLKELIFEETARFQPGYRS
Sequence of Erk1-BSA 2.7x peptide-protein conjugate (human; bovine) (peptide, as listed by the source limits assumed, chain 1 of 2): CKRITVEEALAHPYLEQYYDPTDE
Sequence of Erk1-BSA 2.7x peptide-protein conjugate (human; bovine) (P02769 25-607 limits assumed, chain 2 of 2): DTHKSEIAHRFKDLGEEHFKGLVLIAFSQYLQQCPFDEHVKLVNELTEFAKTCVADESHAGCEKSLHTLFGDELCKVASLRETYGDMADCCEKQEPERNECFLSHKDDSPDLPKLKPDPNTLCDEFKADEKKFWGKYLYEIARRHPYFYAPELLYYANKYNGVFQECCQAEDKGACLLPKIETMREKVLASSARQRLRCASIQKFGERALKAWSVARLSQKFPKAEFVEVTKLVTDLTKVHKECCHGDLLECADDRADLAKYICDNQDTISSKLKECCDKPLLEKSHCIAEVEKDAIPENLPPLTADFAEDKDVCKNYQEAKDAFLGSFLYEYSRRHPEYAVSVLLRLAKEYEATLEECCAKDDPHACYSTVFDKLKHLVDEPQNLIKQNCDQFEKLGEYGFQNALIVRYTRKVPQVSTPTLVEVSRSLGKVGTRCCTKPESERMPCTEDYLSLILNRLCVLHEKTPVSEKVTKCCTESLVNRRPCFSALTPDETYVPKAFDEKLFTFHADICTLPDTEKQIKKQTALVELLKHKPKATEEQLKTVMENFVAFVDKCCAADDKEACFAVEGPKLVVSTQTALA
Sequence of Histone H3-BSA 2.7x peptide-protein conjugate (bovine) (P02769 25-607 limits assumed): as the sequence (P02769 25-607 limits assumed, chain 2 of 2) above
Sequence of pErk1/2-BSA 2.7x peptide-protein conjugate (human; bovine) (P02769 25-607 limits assumed): as the sequence (P02769 25-607 limits assumed, chain 2 of 2) above
Sequence of pRb-BSA 1x peptide-protein conjugate (bovine) (P02769 25-607 limits assumed): as the sequence (P02769 25-607 limits assumed, chain 2 of 2) above
Sequence of UniProt P06400 (P06400 whole entry): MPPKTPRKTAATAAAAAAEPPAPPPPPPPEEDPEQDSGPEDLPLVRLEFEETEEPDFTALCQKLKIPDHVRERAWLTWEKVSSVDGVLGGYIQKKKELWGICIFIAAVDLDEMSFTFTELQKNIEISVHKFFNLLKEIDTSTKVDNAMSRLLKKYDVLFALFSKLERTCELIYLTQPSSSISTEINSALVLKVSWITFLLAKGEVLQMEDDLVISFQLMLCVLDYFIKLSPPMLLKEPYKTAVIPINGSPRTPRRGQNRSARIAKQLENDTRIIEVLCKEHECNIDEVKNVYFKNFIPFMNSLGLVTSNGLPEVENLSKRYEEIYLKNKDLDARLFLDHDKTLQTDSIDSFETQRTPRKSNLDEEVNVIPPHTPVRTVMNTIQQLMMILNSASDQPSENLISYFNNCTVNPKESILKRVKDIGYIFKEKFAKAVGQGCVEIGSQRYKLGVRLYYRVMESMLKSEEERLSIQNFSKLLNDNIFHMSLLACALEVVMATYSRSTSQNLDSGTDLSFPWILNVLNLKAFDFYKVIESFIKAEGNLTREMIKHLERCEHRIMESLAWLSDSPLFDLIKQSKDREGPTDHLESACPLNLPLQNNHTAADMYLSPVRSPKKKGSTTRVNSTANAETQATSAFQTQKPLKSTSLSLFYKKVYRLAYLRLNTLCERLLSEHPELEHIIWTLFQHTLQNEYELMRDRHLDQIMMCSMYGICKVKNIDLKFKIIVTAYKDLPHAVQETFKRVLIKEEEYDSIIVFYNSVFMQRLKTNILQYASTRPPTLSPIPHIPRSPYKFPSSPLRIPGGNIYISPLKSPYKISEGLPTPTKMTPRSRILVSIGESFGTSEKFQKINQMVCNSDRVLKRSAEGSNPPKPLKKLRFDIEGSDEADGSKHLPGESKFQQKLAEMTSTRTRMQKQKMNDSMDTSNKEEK

maximum standard curve signal [1] [RFI] | maximum standard curve signal [2] [RFI] | maximum standard curve signal [3] [RFI] | maximum standard curve signal [4] [RFI] | maximum standard curve signal [5] [RFI] | maximum standard curve signal [6] [RFI] | maximum standard curve signal [9] [RFI] | maximum standard curve signal [11] [RFI] | maximum standard curve signal [12] [RFI] | maximum standard curve signal [13] [RFI] | maximum standard curve signal [14] [RFI] | maximum standard curve signal [15] [RFI] | maximum standard curve signal [16] [RFI] | maximum standard curve signal [17] [RFI] | maximum standard curve signal [18] [RFI] | maximum standard curve signal [19] [RFI] | maximum standard curve signal [20] [RFI] | maximum standard curve signal [21] [RFI] | maximum standard curve signal [22] [RFI] | maximum standard curve signal [23] [RFI] | further results | Substance
0.22 | 5.17 | 7.12 | 0.04 | 1.51 | 2.77 | 0.01 | 0.01 | < 0.01 | 0.02 | 0.04 | < 0.01 | 0.01 | 0.01 | < 0.01 | < 0.01 | 0.01 | 0.01 | < 0.01 | 0.01 | maximum standard curve signal [7]: 0.01 RFI; maximum standard curve signal [8]: 0.01 RFI; maximum standard curve signal [10]: 0.01 RFI; maximum standard curve signal [24]: 0.11 RFI; maximum standard curve signal [25]: 0.39 RFI; maximum standard curve signal [26]: 0.59 RFI; maximum standard curve signal [27]: 0.1 RFI; maximum standard curve signal [28]: 0.16 RFI; maximum standard curve signal [29]: 0.29 RFI; maximum standard curve signal [30]: 0.08 RFI; maximum standard curve signal [31]: 0.1 RFI; maximum standard curve signal [32]: 0.12 RFI; maximum standard curve signal [33]: 0.09 RFI; maximum standard curve signal [34]: 0.09 RFI; maximum standard curve signal [35]: 0.1 RFI | p44/42 MAPK (Erk1/2) antibody, Cell Signaling Technology #4695, rabbit monoclonal
0.36 | 7.2 | 8.96 | 0.05 | 1.51 | 2.44 | 0.08 | 0.01 | 0.23 | 4.65 | 7.28 | 0.03 | 0.91 | 0.06 | < 0.01 | < 0.01 | 0.07 | 0.01 | < 0.01 | 0.01 | maximum standard curve signal [24]: 0.03 RFI; maximum standard curve signal [25]: 0.11 RFI; maximum standard curve signal [26]: 0.19 RFI; maximum standard curve signal [27]: 0.03 RFI; maximum standard curve signal [28]: 0.07 RFI; maximum standard curve signal [29]: 0.12 RFI; maximum standard curve signal [30]: 0.03 RFI; maximum standard curve signal [31]: 0.03 RFI; maximum standard curve signal [32]: 0.1 RFI; maximum standard curve signal [33]: 0.04 RFI; maximum standard curve signal [34]: 0.04 RFI; maximum standard curve signal [35]: 0.04 RFI | p44/42 MAPK (Erk1/2) antibody, Cell Signaling Technology #9102, rabbit polyclonal
